Test results from publication doi:10.1101/2022.05.10.491262.

Molecular target: T1, human alpha-2-macroglobulin, native state (nA2M) (human), P01023
T1 chain: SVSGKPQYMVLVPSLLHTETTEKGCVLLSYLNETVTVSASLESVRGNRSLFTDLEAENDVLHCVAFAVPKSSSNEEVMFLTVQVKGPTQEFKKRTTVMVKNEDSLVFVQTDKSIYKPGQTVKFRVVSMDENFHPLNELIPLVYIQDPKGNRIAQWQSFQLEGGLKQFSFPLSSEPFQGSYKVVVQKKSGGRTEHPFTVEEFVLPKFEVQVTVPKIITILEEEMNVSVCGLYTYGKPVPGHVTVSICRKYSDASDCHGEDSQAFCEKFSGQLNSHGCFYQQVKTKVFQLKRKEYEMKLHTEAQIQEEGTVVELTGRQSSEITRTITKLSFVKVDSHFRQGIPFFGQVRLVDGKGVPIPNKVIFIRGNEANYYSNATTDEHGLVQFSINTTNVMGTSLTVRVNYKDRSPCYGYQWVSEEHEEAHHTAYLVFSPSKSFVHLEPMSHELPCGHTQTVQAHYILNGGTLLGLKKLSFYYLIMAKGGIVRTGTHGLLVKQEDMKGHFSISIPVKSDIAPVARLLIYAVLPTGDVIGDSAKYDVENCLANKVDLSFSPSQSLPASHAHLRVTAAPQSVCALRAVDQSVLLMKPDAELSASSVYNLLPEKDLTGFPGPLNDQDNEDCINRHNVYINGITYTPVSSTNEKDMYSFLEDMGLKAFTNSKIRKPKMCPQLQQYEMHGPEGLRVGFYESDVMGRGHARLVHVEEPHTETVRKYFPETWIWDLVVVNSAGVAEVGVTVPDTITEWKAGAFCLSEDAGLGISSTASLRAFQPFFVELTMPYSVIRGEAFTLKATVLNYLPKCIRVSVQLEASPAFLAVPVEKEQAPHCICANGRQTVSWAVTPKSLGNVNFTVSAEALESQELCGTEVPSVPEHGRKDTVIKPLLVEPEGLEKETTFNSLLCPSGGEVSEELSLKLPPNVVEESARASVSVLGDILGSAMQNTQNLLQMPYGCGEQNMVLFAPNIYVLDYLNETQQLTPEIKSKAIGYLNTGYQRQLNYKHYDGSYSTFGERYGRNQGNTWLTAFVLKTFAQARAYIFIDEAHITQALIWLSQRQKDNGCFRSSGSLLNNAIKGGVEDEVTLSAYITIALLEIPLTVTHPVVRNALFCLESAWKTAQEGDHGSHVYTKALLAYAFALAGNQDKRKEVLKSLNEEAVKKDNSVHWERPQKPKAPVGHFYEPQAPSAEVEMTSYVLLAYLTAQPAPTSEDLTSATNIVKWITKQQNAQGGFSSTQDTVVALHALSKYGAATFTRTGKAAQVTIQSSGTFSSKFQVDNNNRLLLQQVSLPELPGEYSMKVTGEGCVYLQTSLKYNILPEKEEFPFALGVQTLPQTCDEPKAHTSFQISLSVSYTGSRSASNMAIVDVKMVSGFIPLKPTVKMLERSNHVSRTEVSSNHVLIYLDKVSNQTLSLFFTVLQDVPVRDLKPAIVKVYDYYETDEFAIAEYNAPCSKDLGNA
Assay: ITC

stoichiometry N (trypsin per hA2M): 1.2
B1: human trypsin, P35030 81-304 (enzyme)
chain: IVGGYTCEENSLPYQVSLNSGSHFCGGSLISEQWVVSAAHCYKTRIQVRLGEHNIKVLEGNEQFINAAKIIRHPKYNRDTLDNDIMLIKLSSPAVINARVSTISLPTTPPAAGTECLISGWGNTLSFGADYPDELKCLDAPVLTQAECKASYPGKITNSMFCVGFLEGGKDSCQRDSGGPVVCNGQLQGVVSWGHGCAWKNRPGVYTKVYNYVDWIKDTIAANS
modifications: not checked
